Data: PMC10393192, “Structure and DNA-bridging activity of the essential Rec114–Mei4 trimer interface”

Assays:
[1] = biological target: T1, Rec114(386-428);Mei4N (Saccharomyces cerevisiae;Saccharomyces cerevisiae) (UniProt P32841+P29467); test: EMSA; settings: EMSA: 25 mM Tris-HCl pH 7.4, 100 mM NaCl, 5 ng DNA, 20 min, room temperature; AFM: 25 mM HEPES-NaOH pH 7.4, 5 mM MgCl2, 50 mM NaCl, 10% glycerol, 30 min, RT …
T1 sequence 1: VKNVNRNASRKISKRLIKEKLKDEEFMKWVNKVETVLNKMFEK
T1 sequence 2: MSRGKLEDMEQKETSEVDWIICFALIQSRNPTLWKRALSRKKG

[2] = biological target: T2, Rec114C;Mei4N (Saccharomyces cerevisiae;Saccharomyces cerevisiae) (UniProt P32841+P29467); test: EMSA; settings: EMSA: 25 mM Tris-HCl pH 7.4, 100 mM NaCl, 5 ng DNA, 20 min, room temperature; AFM: 25 mM HEPES-NaOH pH 7.4, 5 mM MgCl2, 50 mM NaCl, 10% glycerol, 30 min, RT …
T2 sequence 1: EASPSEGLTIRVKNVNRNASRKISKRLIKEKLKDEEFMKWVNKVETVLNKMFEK
T2 sequence 2: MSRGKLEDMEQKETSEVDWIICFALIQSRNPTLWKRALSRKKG

[3] = biological target: T3, Rec114C;Mei4N-ybbR-LD650 (Saccharomyces cerevisiae;Saccharomyces cerevisiae) (UniProt P32841+P29467); test: EMSA; settings: EMSA: 25 mM Tris-HCl pH 7.4, 100 mM NaCl, 5 ng DNA, 20 min, room temperature; AFM: 25 mM HEPES-NaOH pH 7.4, 5 mM MgCl2, 50 mM NaCl, 10% glycerol, 30 min, RT …
T3 sequence 1: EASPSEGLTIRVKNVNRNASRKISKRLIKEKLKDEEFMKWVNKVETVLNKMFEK
T3 sequence 2: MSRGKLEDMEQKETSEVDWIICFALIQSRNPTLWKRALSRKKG

[4] = biological target: T4, Rec114(388-428);Mei4N (Saccharomyces cerevisiae;Saccharomyces cerevisiae) (UniProt P32841+P29467); test: EMSA; settings: EMSA: 25 mM Tris-HCl pH 7.4, 100 mM NaCl, 5 ng DNA, 20 min, room temperature; AFM: 25 mM HEPES-NaOH pH 7.4, 5 mM MgCl2, 50 mM NaCl, 10% glycerol, 30 min, RT …
T4 sequence 1: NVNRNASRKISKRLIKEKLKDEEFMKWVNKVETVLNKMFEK
T4 sequence 2: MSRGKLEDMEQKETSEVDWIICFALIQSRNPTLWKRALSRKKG

[5] = biological target: T5, Rec114(388-428) K417A/K424A;Mei4N K417A;K424A (Saccharomyces cerevisiae;Saccharomyces cerevisiae) (UniProt P32841+P29467); test: EMSA; settings: EMSA: 25 mM Tris-HCl pH 7.4, 100 mM NaCl, 5 ng DNA, 20 min, room temperature; AFM: 25 mM HEPES-NaOH pH 7.4, 5 mM MgCl2, 50 mM NaCl, 10% glycerol, 30 min, RT …
T5 sequence 1: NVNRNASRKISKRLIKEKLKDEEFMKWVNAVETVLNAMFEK
T5 sequence 2: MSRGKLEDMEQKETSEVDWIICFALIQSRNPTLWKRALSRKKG

[6] = biological target: T6, Rec114(388-428) K403A/K407A;Mei4N K403A;K407A (Saccharomyces cerevisiae;Saccharomyces cerevisiae) (UniProt P32841+P29467); test: EMSA; settings: EMSA: 25 mM Tris-HCl pH 7.4, 100 mM NaCl, 5 ng DNA, 20 min, room temperature; AFM: 25 mM HEPES-NaOH pH 7.4, 5 mM MgCl2, 50 mM NaCl, 10% glycerol, 30 min, RT …
T6 sequence 1: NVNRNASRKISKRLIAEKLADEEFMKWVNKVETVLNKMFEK
T6 sequence 2: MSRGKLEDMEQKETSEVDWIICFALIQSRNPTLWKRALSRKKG

[7] = biological target: T7, mREC114C;mMEI4N (Mus musculus;Mus musculus) (UniProt Q9CWH4+Q8BRM6); test: EMSA; settings: EMSA: 25 mM Tris-HCl pH 7.4, 100 mM NaCl, 5 ng DNA, 20 min, room temperature; AFM: 25 mM HEPES-NaOH pH 7.4, 5 mM MgCl2, 50 mM NaCl, 10% glycerol, 30 min, RT …
T7 sequence 1: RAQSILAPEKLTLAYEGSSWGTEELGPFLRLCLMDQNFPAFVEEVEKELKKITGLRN
T7 sequence 2: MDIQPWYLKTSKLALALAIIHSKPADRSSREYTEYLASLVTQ

[8] = biological target: T8, Rec114(388-428) R395A/K396A;Mei4N R395A;K396A (Saccharomyces cerevisiae;Saccharomyces cerevisiae) (UniProt P32841+P29467); test: EMSA; settings: EMSA: 25 mM Tris-HCl pH 7.4, 100 mM NaCl, 5 ng DNA, 20 min, room temperature; AFM: 25 mM HEPES-NaOH pH 7.4, 5 mM MgCl2, 50 mM NaCl, 10% glycerol, 30 min, RT …
T8 sequence 1: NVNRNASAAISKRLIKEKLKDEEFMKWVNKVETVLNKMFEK
T8 sequence 2: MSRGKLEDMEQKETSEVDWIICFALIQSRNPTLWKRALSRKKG

[9] = biological target: T9, Rec114C;Mei4N-ybbR (Saccharomyces cerevisiae;Saccharomyces cerevisiae) (UniProt P32841+P29467); test: EMSA; settings: EMSA: 25 mM Tris-HCl pH 7.4, 100 mM NaCl, 5 ng DNA, 20 min, room temperature; AFM: 25 mM HEPES-NaOH pH 7.4, 5 mM MgCl2, 50 mM NaCl, 10% glycerol, 30 min, RT …
T9 sequence 1: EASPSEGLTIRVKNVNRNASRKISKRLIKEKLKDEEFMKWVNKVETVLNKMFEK
T9 sequence 2: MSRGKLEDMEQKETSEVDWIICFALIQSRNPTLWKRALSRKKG

[10] = biological target: T10, Rec114(325-428);Mei4(1-90) (Saccharomyces cerevisiae;Saccharomyces cerevisiae) (UniProt P32841+P29467); test: EMSA; settings: EMSA: 25 mM Tris-HCl pH 7.4, 100 mM NaCl, 5 ng DNA, 20 min, room temperature; AFM: 25 mM HEPES-NaOH pH 7.4, 5 mM MgCl2, 50 mM NaCl, 10% glycerol, 30 min, RT …
T10 sequence 1: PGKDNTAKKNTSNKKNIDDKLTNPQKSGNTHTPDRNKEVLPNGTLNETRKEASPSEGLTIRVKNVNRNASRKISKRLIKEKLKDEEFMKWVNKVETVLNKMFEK
T10 sequence 2: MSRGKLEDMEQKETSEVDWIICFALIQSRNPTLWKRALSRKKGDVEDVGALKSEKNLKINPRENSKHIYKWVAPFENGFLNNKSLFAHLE

[11] = biological target: T11, Rec114(388-428);Mei4(13-43) (Saccharomyces cerevisiae;Saccharomyces cerevisiae) (UniProt P32841+P29467); test: EMSA; settings: EMSA: 25 mM Tris-HCl pH 7.4, 100 mM NaCl, 5 ng DNA, 20 min, room temperature; AFM: 25 mM HEPES-NaOH pH 7.4, 5 mM MgCl2, 50 mM NaCl, 10% glycerol, 30 min, RT …
T11 sequence 1: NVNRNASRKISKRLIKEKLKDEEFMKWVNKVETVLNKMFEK
T11 sequence 2: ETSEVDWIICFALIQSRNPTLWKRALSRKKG

[12] = biological target: T12, Rec114(388-428) K399A/R400A;Mei4N K399A;R400A (Saccharomyces cerevisiae;Saccharomyces cerevisiae) (UniProt P32841+P29467); test: EMSA; settings: EMSA: 25 mM Tris-HCl pH 7.4, 100 mM NaCl, 5 ng DNA, 20 min, room temperature; AFM: 25 mM HEPES-NaOH pH 7.4, 5 mM MgCl2, 50 mM NaCl, 10% glycerol, 30 min, RT …
T12 sequence 1: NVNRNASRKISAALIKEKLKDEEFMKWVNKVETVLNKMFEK
T12 sequence 2: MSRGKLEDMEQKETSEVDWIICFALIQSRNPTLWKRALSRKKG

Rec114C;Mei4N [13] = biological target: T13, Rec114C;Mei4N (Saccharomyces cerevisiae;Saccharomyces …, UniProt P32841;P29467 375-428;1-43, |); test: EMSA; C50; main text gives ~800 nM; EMSA: 25 mM Tris-HCl pH 7.4, 100 mM NaCl, 5 ng DNA, 20 min, room temperature; AFM: 25 mM HEPES-NaOH pH 7.4, 5 mM MgCl2, 50 mM NaCl, 10% glycerol, 30 min, RT; optical trap: same buffer plus 5 nM SYTOX Orange, RT; settings: protein: recombinant;recombinant; tags: 6xHis-SUMO removed by Ulp1 (tagged chain);6xHis-SUMO removed by Ulp1 when on this chain; chain copies: 2;1; blunt
T13 sequence 1: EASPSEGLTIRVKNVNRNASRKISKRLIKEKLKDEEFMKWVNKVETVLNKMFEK
T13 sequence 2: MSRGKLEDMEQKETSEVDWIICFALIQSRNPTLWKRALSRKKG

Rec114C;Mei4N [14] = biological target: T13, Rec114C;Mei4N; test: EMSA; C50; EMSA: 25 mM Tris-HCl pH 7.4, 100 mM NaCl, 5 ng DNA, 20 min, room temperature; AFM: 25 mM HEPES-NaOH pH 7.4, 5 mM MgCl2, 50 mM NaCl, 10% glycerol, 30 min, RT; optical trap: same buffer plus 5 nM SYTOX Orange, RT; settings: protein: recombinant;recombinant; tags: 6xHis-SUMO removed by Ulp1 (tagged chain);6xHis-SUMO removed by Ulp1 when on this chain; chain copies: 2;1; blunt

Molecule: ATCTGGCTCGCCTGACGGGATGCGACGAATTTTCGCCGCCCCATAAAGTACGCCCACGACTCGTTCGCACTGGCCCGTGCCGTGGAGTAGCTCATCTGGGCGTAATTCCGGGAAAGCTGCTCATACGAGACACCCAGCCCGGCAGCGATAT (double strand) [150-bp DNA]
- K half [1]: 110 nM
- K half [2]: 90 nM
- K half [3]: 90 nM
- K half [4]: 110 nM
- K half [5]: 900 nM
- K half [6]: 1000 nM
- binding [7]: binds more weakly
- K half [8]: 1000 nM
- K half [9]: 90 nM
- K half [10]: 90 nM
- K half [11]: 100 nM
- K half [12]: 2000 nM

B1: dsDNA20 (dsDNA)
DNA 1: AAAGATGTCCTAGCAATGTA
DNA 2: TACATTGCTAGGACATCTTT
- apparent K (half saturation) (Rec114C;Mei4N [13]): 600 ± 100 nM

B2: dsDNA80 (dsDNA)
DNA 1: CTAGTATAGAGCCGGCGCGCCATGTCTAGATAGCGTTAGGTCTGCCGAATAGTACTACTCGGATCCCGAGCGAACCACGC
DNA 2: GCGTGGTTCGCTCGGGATCCGAGTAGTACTATTCGGCAGACCTAACGCTATCTAGACATGGCGCGCCGGCTCTATACTAG
- apparent K (half saturation) (Rec114C;Mei4N [14]): 100 ± 20 nM
